Test results: paper PMC10922795

Key:
Assay in all cases: SPR
[1] = target: Igh^g2A10 mutant Fab J1/L114F with LC_Q106R (mouse)
[2] = target: Igh^g2A10 mutant Fab J2/L114F (mouse)
[3] = target: Igh^g2A10 mutant Fab J2/L114F with LC_Q106K (mouse)

For “recombinant PfCSP (from UniProt Q7K740 19-374) (natural protein)”, the fold increase in affinity over J1/L114F [1] was 18.2 fold, the fold increase in affinity over the J2 UCA [2] was 1.49 fold and the fold increase in affinity over J2/L114F [3] was 65 fold.
